The text below walks through data of patent US20090137485A1, “Antigens Targeted by Pathogenic T Cells in Type 1 Diabetes and Uses Thereof” (priority 2005, published 2009).

One assay concerns the target HLA-A2 molecule (Homo sapiens, UniProt P04439, D140Y/D185E/D98H/E176V/E277Q/G131W/G231S/I119V/I121R/I166T/I218V/L300P/L318F/N151K/N90K/P208A/P217A/Q86G/Q94H/R138H/R169H/T345S). The settings on record: from the literature (Panagiotopoulos et al., 2003; Regner et al., 1996); cited from earlier work.
The target in assay [1] is T1, human HLA-A2 MHC class I molecule (HLA-A*0201) on T2 cells (human).
T1 construct: Surface HLA-A2 was read with FITC anti-HLA-A2 mAb BB7.2; also called HLA-A2.1
In words: descriptor in the legend of an IFN-gamma ELISPOT figure (T2 cells as APC).

Assay [2] concerns the target T1, human HLA-A2 MHC class I molecule …. Briefly: peptide library screen; HLA-A2 restriction on T2 cells.

On to KLQVFLIVL [PreproIAPP5-13], for which the “binding to HLA-A2” value with HLA-A2 molecule is listed as “HLA-A2-binding”.

Turning to VLFGLGFAI (also called murine IGRP 265-273) [mIGRP265-273 (VLFGLGFAI)], the binding result in assay [1] is given as “binds”.

Take FGIDLLWSV (also called murine IGRP 228-236) [mIGRP228-236 (FGIDLLWSV)]: in assay [2], the binding result is “binds”.

Turning to ALIPYCVHM (also called murine IGRP 337-345) [mIGRP337-345 (ALIPYCVHM)], the binding result in assay [1] is listed as “binds”.
